In paper PMC9814900 one finds Kd data, which are given here for one molecule.

The target of this assay is MDM2 25-109 (Homo sapiens), Q00987. The assay is described as follows: BLI competition. Particulars: modification not given.

Broadly, the Kd is a measure of binding affinity in units of concentration. On to AAFAAYWAALAAK [peptide 34], for which the Kd came out at 4.7 nM.
